Measured values: publication PMC12669767

T1: NEDD4, endogenous in HEK293T, P46934
T1 chain: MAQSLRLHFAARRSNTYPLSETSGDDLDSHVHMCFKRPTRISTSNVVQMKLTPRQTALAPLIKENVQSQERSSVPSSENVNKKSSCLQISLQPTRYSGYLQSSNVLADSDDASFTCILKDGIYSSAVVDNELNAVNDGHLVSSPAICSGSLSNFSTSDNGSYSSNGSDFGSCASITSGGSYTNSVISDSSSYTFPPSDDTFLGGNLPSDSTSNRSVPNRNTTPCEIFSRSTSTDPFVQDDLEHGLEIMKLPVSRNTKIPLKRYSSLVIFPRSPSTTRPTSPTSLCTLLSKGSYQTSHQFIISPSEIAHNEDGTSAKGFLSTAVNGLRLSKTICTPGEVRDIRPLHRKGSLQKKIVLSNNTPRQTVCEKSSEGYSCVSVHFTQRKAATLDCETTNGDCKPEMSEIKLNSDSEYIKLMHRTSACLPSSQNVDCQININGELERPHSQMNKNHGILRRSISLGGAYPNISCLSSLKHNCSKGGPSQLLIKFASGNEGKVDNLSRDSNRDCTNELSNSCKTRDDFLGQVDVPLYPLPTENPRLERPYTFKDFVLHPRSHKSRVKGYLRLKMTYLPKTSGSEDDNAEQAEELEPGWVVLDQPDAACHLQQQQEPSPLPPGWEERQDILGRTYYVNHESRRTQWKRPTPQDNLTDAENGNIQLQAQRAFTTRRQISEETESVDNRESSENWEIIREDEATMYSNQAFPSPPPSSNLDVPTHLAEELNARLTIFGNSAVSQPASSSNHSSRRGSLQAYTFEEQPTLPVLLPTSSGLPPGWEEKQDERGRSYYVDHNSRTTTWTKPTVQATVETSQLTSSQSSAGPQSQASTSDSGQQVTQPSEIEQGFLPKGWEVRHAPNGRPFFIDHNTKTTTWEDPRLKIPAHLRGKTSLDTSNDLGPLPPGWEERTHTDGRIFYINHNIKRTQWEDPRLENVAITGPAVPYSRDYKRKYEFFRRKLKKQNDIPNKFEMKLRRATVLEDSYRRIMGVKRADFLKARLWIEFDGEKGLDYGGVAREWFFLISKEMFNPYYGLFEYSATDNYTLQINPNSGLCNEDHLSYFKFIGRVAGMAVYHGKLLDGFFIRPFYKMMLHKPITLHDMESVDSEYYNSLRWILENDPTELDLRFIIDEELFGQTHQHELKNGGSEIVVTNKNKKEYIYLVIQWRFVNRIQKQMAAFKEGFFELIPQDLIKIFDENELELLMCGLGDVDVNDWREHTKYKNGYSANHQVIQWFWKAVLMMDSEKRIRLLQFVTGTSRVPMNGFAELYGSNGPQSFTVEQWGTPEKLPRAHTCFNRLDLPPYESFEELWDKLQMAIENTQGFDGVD

T2: NEDD4L, endogenous in HEK293T, Q96PU5
T2 chain: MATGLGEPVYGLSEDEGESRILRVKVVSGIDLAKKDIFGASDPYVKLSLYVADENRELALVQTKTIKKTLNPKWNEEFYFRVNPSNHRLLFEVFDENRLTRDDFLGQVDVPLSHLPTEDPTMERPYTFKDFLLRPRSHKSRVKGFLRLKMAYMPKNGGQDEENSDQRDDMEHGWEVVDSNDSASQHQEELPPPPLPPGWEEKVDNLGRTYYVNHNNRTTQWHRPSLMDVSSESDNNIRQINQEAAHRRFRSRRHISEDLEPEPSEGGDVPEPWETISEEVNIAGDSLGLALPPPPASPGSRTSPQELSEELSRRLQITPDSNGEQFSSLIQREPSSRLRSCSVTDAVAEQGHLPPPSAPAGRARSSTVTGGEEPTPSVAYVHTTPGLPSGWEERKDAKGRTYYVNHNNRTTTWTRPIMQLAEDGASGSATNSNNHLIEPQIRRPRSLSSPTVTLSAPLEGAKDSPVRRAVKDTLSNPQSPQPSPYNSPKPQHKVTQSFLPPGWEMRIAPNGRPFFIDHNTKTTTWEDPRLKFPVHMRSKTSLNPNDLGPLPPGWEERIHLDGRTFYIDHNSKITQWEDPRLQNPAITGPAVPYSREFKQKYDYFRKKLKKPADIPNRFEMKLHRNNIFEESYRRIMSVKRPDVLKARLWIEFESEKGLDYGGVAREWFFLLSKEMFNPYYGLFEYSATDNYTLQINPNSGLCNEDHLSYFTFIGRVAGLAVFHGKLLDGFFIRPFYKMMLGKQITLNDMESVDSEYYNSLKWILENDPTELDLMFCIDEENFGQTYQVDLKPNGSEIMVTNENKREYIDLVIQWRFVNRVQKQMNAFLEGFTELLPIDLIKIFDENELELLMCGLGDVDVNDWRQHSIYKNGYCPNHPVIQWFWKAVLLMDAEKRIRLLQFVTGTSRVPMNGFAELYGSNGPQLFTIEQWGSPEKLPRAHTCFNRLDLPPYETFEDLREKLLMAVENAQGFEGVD


Key:
Assay in all cases: co-immunoprecipitation of ALFA-TXNIP, label-free quantitative interactome (mass spectrometry)
[1] = molecular target: HECW2, endogenous in HEK293T, Q9P2P5; details: chain shown with the change, immunoprecipitated from HEK293T cells, n = 3, read off a plot; for response (normalized abundance): abundances normalized to unspecific background binding to empty beads, scatter plot
[2] = molecular target: T1, NEDD4, endogenous in HEK293T, P46934; details: chain shown with the change, immunoprecipitated from HEK293T cells, n = 3, read off a plot; for response (normalized abundance): abundances normalized to unspecific background binding to empty beads, scatter plot
[3] = molecular target: T2, NEDD4L, endogenous in HEK293T, Q96PU5; details: chain shown with the change, immunoprecipitated from HEK293T cells, n = 3, read off a plot; for response: histogram, parent: est. 1.1e10
[4] = molecular target: WWP1, endogenous in HEK293T, Q9H0M0; details: chain shown with the change, immunoprecipitated from HEK293T cells, n = 3, read off a plot; for response (normalized abundance): abundances normalized to unspecific background binding to empty beads, scatter plot
[5] = molecular target: WWP2, endogenous in HEK293T, O00308; details: chain shown with the change, immunoprecipitated from HEK293T cells, n = 3, read off a plot; for response (normalized abundance): abundances normalized to unspecific background binding to empty beads, scatter plot
[6] = abundances normalized to unspecific background binding to empty beads

Chain of HECW2, endogenous in HEK293T, Q9P2P5 (Q9P2P5 whole entry): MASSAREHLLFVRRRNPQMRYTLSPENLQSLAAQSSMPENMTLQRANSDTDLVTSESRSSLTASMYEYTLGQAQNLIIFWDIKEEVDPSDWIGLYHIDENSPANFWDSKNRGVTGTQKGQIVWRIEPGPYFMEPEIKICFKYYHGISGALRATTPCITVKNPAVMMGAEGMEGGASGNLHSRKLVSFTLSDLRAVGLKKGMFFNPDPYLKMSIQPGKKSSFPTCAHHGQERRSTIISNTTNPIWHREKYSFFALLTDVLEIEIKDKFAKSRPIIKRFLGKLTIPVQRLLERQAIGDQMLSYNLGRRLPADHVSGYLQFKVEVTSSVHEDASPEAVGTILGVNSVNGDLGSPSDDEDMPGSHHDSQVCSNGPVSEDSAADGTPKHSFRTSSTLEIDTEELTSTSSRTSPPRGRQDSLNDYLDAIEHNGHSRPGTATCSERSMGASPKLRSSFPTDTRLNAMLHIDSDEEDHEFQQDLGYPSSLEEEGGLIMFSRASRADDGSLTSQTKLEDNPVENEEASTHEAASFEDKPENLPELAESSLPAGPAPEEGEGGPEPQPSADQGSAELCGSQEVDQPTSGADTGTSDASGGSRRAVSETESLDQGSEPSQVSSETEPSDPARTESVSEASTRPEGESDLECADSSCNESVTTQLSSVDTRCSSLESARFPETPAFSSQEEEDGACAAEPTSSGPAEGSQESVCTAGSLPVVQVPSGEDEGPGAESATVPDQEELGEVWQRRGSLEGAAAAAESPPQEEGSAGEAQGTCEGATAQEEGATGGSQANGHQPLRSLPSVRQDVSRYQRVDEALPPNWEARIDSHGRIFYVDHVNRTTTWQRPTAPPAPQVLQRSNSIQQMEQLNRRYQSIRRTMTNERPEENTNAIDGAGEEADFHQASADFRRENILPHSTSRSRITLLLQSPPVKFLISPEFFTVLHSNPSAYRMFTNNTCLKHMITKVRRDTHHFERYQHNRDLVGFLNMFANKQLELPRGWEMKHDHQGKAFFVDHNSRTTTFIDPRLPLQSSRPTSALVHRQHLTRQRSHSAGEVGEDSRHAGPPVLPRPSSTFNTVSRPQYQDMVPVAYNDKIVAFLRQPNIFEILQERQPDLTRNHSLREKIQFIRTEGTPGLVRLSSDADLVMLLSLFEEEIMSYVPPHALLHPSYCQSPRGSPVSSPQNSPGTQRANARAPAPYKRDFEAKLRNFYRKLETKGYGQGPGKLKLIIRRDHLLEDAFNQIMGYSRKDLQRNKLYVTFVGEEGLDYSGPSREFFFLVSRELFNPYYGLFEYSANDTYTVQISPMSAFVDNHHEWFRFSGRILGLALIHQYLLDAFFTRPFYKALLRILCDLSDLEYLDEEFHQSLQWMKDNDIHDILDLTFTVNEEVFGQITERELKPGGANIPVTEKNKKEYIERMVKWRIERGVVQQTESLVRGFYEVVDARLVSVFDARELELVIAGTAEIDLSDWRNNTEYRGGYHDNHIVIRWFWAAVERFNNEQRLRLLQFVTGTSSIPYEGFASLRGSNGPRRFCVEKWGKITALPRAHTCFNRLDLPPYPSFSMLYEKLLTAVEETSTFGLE
Chain of WWP2, endogenous in HEK293T, O00308 (O00308 whole entry): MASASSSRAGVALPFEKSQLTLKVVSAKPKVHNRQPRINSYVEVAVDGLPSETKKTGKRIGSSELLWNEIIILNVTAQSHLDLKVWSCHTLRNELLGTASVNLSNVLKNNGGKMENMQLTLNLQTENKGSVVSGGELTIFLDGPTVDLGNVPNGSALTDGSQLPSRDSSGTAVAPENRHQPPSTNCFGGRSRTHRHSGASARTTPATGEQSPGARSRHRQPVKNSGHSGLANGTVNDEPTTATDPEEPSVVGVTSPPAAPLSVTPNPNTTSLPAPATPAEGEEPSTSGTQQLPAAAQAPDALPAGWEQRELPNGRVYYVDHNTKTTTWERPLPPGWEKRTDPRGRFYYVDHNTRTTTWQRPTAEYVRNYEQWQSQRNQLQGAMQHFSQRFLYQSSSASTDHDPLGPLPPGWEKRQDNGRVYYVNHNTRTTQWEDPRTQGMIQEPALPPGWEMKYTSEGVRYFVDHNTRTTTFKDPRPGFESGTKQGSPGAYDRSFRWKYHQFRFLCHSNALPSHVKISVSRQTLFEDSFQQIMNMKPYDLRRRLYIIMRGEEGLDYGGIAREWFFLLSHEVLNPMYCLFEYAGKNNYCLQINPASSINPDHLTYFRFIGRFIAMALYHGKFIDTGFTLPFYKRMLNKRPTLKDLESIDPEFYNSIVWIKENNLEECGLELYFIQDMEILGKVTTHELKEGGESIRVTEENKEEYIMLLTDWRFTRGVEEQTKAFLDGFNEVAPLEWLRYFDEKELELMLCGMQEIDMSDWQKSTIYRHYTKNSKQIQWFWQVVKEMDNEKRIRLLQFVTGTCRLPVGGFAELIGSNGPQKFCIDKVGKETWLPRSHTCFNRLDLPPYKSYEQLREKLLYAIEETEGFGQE

response (normalized abundance) ([1]; parent: est. 1.0e8) | other: log2 PPxY331/WT [1] | response (normalized abundance) ([2]; parent: est. 4.5e8) | other: log2 PPxY331/WT [2] | response [3, 6] | other: log2 PPxY331/WT [3] | response (normalized abundance) ([4]; parent: est. 3.2e8) | other: log2 PPxY331/WT [4] | response (normalized abundance) ([5]; parent: est. 1.4e9) | other: log2 PPxY331/WT [5] | response (normalized abundance) ([1]; parent: est. 1.3e8) | response (normalized abundance) ([2]; parent: est. 5.0e8) | other: log2 PPxY/WT ([2]; volcano plot) | response (normalized abundance) ([3]; abundances normalized to unspecific background binding to empty beads, scatter plot, parent: est. 1.0e10) | other: log2 PPxY/WT ([3]; volcano plot) | response (normalized abundance) ([4]; parent: est. 3.5e8) | other: log2 PPxY/WT ([4]; volcano plot) | response (normalized abundance) ([5]; parent: est. 1.3e9) | Binder
1.3e+06 | -4.1 log2 | 1.2e+08 | -1.7 log2 | 6.6e+09 abundance | -0.7 log2 | 8.5e+07 | -1.5 log2 | 4.5e+08 | -1.8 log2 | – | – | – | – | – | – | – | – | ALFA-tagged TXNIP (thioredoxin interacting protein), expressed in HEK293T, Q9H3M7 PPCY331AACA (protein) MVMFKKIKSFEVVFNDPEKVYGSGEKVAGRVIVEVCEVTRVKAVRILACGVAKVLWMQGSQQCKQTSEYLRYEDTLLLEDQPTGENEMVIMRPGNKYEYKFGFELPQGPLGTSFKGKYGCVDYWVKAFLDRPSQPTQETKKNFEVVDLVDVNTPDLMAPVSAKKEKKVSCMFIPDGRVSVSARIDRKGFCEGDEISIHADFENTCSRIVVPKAAIVARHTYLANGQTKVLTQKLSSVRGNHIISGTCASWRGKSLRVQKIRPSILGCNILRVEYSLLIYVSVPGSKKVILDLPLVIGSRSGLSSRTSSMASRTSSEMSWVDLNIPDTPEAAACAMDVIPEDHRLESPTTPLLDDMDGSQDSPIFMYAPEFKFMPPPTYTEVDPCILNNNVQ
– | – | – | – | 3.8e+09 abundance | – | – | – | – | – | 80000 | 1e+08 | -2.2 log2 | 4e+09 | -1.5 log2 | 1.6e+06 | -3 log2 | 800000 | ALFA-tagged TXNIP (thioredoxin interacting protein), expressed in HEK293T, Q9H3M7 PPCY331AACA; PPTY375AATA (protein) MVMFKKIKSFEVVFNDPEKVYGSGEKVAGRVIVEVCEVTRVKAVRILACGVAKVLWMQGSQQCKQTSEYLRYEDTLLLEDQPTGENEMVIMRPGNKYEYKFGFELPQGPLGTSFKGKYGCVDYWVKAFLDRPSQPTQETKKNFEVVDLVDVNTPDLMAPVSAKKEKKVSCMFIPDGRVSVSARIDRKGFCEGDEISIHADFENTCSRIVVPKAAIVARHTYLANGQTKVLTQKLSSVRGNHIISGTCASWRGKSLRVQKIRPSILGCNILRVEYSLLIYVSVPGSKKVILDLPLVIGSRSGLSSRTSSMASRTSSEMSWVDLNIPDTPEAAACAMDVIPEDHRLESPTTPLLDDMDGSQDSPIFMYAPEFKFMPAATATEVDPCILNNNVQ
